From patent publication US20170327844A1

Molecular target: cation-independent mannose 6-phosphate (M6P) receptor (MPR) (UniProt P11717)
Assay: cell-based or functional assay

Sequence of UniProt P11717 (P11717 41-2491): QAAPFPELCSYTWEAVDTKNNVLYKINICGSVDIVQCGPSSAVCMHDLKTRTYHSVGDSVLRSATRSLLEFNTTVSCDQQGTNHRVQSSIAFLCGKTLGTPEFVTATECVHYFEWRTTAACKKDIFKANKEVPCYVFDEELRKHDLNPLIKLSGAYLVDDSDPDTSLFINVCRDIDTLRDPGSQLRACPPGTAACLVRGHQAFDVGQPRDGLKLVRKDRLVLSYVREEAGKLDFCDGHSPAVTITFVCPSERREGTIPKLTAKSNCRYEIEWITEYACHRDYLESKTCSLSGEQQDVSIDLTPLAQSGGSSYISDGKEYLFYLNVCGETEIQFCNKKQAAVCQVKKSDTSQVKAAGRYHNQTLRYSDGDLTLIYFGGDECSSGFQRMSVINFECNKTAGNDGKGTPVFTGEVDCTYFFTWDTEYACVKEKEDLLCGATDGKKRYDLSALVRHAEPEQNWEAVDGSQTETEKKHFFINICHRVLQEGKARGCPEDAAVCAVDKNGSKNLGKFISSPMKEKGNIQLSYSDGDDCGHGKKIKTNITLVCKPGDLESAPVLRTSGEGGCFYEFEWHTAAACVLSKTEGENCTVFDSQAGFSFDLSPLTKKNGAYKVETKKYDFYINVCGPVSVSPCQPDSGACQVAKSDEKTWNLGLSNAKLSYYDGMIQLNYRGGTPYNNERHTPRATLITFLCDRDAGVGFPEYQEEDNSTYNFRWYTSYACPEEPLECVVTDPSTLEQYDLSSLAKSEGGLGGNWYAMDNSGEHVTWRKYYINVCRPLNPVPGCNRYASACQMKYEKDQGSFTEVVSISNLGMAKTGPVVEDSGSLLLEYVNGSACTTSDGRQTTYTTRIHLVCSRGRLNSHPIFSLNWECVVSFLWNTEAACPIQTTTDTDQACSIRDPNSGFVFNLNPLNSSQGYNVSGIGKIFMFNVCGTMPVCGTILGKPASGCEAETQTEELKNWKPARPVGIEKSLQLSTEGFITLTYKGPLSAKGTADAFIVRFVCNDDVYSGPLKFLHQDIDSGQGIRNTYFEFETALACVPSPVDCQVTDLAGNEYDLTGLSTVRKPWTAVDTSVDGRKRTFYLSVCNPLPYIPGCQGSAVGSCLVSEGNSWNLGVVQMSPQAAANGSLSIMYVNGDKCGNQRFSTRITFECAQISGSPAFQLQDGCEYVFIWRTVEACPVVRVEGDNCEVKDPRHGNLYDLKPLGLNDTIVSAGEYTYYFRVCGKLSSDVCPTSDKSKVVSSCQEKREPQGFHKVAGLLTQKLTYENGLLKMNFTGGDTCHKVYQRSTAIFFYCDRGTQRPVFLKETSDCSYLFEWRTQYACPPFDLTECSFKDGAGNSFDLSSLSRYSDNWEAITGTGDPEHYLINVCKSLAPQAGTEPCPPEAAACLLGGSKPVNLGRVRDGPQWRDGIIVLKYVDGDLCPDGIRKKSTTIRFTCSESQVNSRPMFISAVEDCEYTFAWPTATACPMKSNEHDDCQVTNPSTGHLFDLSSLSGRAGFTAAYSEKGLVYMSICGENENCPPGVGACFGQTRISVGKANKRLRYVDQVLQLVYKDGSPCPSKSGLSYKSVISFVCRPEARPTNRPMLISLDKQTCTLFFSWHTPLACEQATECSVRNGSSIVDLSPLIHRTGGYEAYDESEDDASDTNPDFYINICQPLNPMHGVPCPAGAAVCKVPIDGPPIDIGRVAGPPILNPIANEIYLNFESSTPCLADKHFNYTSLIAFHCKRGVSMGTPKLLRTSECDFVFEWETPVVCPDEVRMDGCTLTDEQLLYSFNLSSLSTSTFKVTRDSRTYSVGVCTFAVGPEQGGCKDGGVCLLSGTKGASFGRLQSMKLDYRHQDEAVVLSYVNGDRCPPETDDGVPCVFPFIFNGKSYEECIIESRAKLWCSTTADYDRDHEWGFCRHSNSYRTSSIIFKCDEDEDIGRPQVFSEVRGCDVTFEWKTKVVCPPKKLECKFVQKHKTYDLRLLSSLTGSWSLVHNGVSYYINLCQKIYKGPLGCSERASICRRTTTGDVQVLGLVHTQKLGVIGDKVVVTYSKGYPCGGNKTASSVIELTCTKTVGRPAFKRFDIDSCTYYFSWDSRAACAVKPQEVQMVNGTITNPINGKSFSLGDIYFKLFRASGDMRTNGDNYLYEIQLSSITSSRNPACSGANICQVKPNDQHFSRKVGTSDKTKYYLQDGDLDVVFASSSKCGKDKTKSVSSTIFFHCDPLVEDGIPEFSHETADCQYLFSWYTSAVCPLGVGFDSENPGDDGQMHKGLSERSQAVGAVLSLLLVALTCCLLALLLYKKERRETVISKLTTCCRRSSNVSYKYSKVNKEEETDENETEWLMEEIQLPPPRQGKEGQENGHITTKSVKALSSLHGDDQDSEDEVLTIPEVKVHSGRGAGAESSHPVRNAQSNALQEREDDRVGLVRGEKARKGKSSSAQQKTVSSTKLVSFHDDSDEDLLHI

- intracellular IDUA level in LCLmps cells after uptake, relative to wild-type (% of wild-type levels): 10
- intracellular IDUA specific activity in LCLmps cells after 3 hr uptake from conditioned medium: 0.8 U/mg
Substance: alpha-L-iduronidase (IDUA) released by erythroid-induced MEL-KIiG cells (human IDUA cDNA) (from UniProt P35475 28-653) (enzyme)
